# Results from patent US20130230533A1 (Regeneron, published 2013).
# Substitutions are numbered along the chain they refer to. Names may count otherwise.
# T1: Dimeric human CD48-mFc (human)
# T1 chain: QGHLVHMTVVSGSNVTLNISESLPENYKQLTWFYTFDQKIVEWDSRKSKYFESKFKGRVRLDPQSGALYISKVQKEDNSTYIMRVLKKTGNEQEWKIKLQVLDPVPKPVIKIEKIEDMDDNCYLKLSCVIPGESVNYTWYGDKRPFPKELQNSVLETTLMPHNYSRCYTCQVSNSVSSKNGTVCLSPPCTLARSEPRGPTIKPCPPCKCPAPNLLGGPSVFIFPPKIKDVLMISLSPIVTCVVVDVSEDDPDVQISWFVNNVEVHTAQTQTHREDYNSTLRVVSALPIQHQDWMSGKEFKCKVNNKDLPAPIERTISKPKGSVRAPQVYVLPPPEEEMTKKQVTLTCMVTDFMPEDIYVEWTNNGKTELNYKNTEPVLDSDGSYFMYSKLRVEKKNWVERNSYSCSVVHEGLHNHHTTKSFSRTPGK
# T2: Monomeric human CD48-mmH (human)
# T2 construct: also called soluble CD48 expressed with a myc-myc-hexa-histidine C-terminal tag [mmH]
# T2 chain: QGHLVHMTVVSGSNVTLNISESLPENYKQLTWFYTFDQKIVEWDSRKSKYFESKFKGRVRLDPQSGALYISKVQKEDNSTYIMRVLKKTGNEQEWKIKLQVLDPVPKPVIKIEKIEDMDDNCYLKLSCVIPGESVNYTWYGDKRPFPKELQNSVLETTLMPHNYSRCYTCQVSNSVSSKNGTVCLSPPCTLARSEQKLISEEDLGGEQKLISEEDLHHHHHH
# B1: H4H1789Pa (antibody, V domains shown)
# VH: EVQLLESGGGLVHPGGSLRLSCAASGFTFGGYAMSWVRQAPGKGLEWVSLISGSGGSTYYADSVKGRFTIFRDNSKNTLYLQMISLRAEDSAVYYCAKYSNYDYFDPWGQGTLVTVSS
# VL: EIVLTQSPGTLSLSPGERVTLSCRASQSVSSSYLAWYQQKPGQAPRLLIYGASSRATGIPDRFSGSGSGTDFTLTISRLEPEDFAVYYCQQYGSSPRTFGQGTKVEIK
# notes: Human IgG4 Fc (prefix H4H)
# B2: H2M1764N (antibody, mouse IgG2, V domains shown)
# VH: QVQLVESGGGVVQPGRSLRLSCAASGFTFSDYGMHWVRQAPGKGLEWVAVIWNDGSNKNYADSVKGRFSISSDSSKNTLYLHMNSLRAEDTAVYYCARSLYSTSPWYFDLWGRGTLVTVSS
# VL: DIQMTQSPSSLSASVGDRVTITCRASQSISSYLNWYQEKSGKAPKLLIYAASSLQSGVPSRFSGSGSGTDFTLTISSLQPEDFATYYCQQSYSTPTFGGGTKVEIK
# notes: Human variable domains, mouse IgG2 Fc (prefix H2M)
# B3: H4H1764N (antibody, human IgG4, V domains shown)
# VH: B2 VH
# VL: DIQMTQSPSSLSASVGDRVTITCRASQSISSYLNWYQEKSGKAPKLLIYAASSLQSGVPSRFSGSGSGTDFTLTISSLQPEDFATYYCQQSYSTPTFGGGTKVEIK
# notes: Human IgG4 Fc (prefix H4H)
# B4: H2M1811N (antibody, mouse IgG2, V domains shown)
# VH: QVQLVQSGAEAREPGASVRVSCKASGYTFTDYFIHWVRQAPGQGLEWMGWINPNSGATNFAQKFQGRVTMTRDTSLITAYMDLSRLKSDDAAVFYCARDVDGSGWYLDFWGQGTLVTVSS
# VL: EIVLTQSPATLSLSPGERATLSCRASQSVSIYLAWYQQKPGQAPRLLIYDASNRATGIPARFSGSGSGTDFTLTISRLEPEDFAVYYCQQRSDWPPSITFGQGTRLEIK
# notes: as for B2
# B5: H2M1710N (antibody, mouse IgG2, V domains shown)
# VH: QVQLVQSGADMKKPGASVRVSCKASGYTFTDYFIHWVRQAPGQGPEWMGWINPDSGATNYAQQFQGRVTMTRDTSISATYMEMSRLRSDDTAVFYCARDKDGSGWYLDDWGQGTLVTVSS
# VL: B4 VL with S30N, T56S, R77S, D93N
# notes: as for B2
# B6: H4H1774P (antibody, human IgG4, V domains shown)
# VH: QVQLVESGGGVVQPGRSLRLSCAASGFTFSNYGMHWVRQAPGKGLEWVAVIWYDESSKYYTDSVKGRFTISRDNSQNTLYLQMTSLRAEDTAVYYCARDRWTYSHYFEYWGQGTLVTVSS
# VL: DIQMTQSPSSVSASVGDRVTITCRASQGISSWVAWYQQKPGKAPKLLIYAASSLQSGVPSRFSGSGSGTDFTLTISSLQPEDFATYYCQQANSFPRTFGQGTKVEIK
# notes: Human IgG4 Fc (prefix H4H)
# B7: H4H1778P (antibody, human IgG4, V domains shown)
# VH: B6 VH
# VL: B6 VL
# notes: Human IgG4 Fc (prefix H4H)
# B8: H4H1781P (antibody, human IgG4, V domains shown)
# VH: B6 VH with E55D, S57N, Y59N, T61A, Q76K, T84N, A88V, Y106F
# VL: B6 VL with V33L, K45N, S63G, T72S, S77G
# notes: Human IgG4 Fc (prefix H4H)
# B9: H4H1713N (antibody, human IgG4, V domains shown)
# VH: QVQLVQSGAEVKKPGASVKVSCKASGHTFTNYYIHWVRQAPGQGLEWMGITNPNDGNTRYAQKFQGRISMTWDTSTSTVFMELSSLKSEDTAVYYCAGLRYWFFDLWGRGTPVTVSS
# VL: B6 VL with G28D, V33L, K45N, Y49F, A84G, A91T, N92D, S93N, K107N
# notes: Human IgG4 Fc (prefix H4H)
# B10: H2M1713N (antibody, mouse IgG2, V domains shown)
# VH: B9 VH
# VL: B6 VL with G28D, V33L, K45N, Y49F, A84G, A91T, N92D, S93N, K107N
# notes: as for B2
# B11: H4H1775P (antibody, human IgG4, V domains shown)
# VH: B6 VH with S57G, Y59H, T61A
# VL: B6 VL with G28D
# notes: Human IgG4 Fc (prefix H4H)
# B12: H4H1779P (antibody, human IgG4, V domains shown)
# VH: B6 VH with Y59H, T61A
# VL: B6 VL with G28D
# notes: Human IgG4 Fc (prefix H4H)
# B13: H2M1709N (antibody, mouse IgG2, V domains shown)
# VH: QVQLVQSGAEVKKPGASVKVSCKVSGYTLTELSIHWVRQAPGKGLEWMGGFDPEDGETIYAQKFQGRVNMTEDTSTDTAYMELSSLRSDDTTVYFCASLLPYFDYWGQGTLVTVSS
# VL: EIVLTQSPGTLSLSPGERATLSCRASQSVSSSYLAWYQQKPGQAPRLLIYGASSRATGIPDRFSGSGSGTDFTLSISRLEPEDFAVYFCQQYGSSMYTFGQGTKLEIK
# notes: as for B2
# B14: H2M1763N (antibody, mouse IgG2, V domains shown)
# VH: QIQLVQSGAEMKRPGTSVKVSCKASGYTFTSYGINWVRQAPGQGLEWMGWISAYNGDTNYAQKLQGRVTMTTDTSTTTAYMEVRSLRSDDTAVYYCARFLTGTKDYYYGMDVWGQGTTVTVSS
# VL: DIQMTQSPSSLSASVGDRVTITCQASQDISNFLNWYQQKPGKAPDLLINDASILETGVPSRFSGSGSGTDFTLTINNLQPEDIATYYCQQYDNLPLTFGGGTKVEIK
# notes: as for B2
# B15: H4H1763N (antibody, human IgG4, V domains shown)
# VH: B14 VH
# VL: B14 VL
# notes: Human IgG4 Fc (prefix H4H)
# B16: H2M1712N (antibody, mouse IgG2, V domains shown)
# VH: B14 VH with T30S, Y106L
# VL: B14 VL with N77S
# notes: as for B2
# What was measured:
# Dimeric human CD48-mFc = target: T1, Dimeric human CD48-mFc; assay: SPR (Biacore T100), 25 C, antibody captured by anti-Fc, dimeric CD48-mFc in solution
# Protocol: (§1) Measurements were conducted on a T100-2 BIACORE™ instrument (Biacore Life Sciences division of GE Healthcare, Piscataway, N.J.). Antibodies (either with mouse Fc [designated “H2M” or “H3M”] or human IgG4 Fc [designated “H4H”]) were captured through an anti-Fc chip surface, and CD48 was flowed over the surface either in a monomeric (soluble CD48 expressed with a myc-myc-hexa-histidine C-terminal tag [mmH]) or dimeric (soluble CD48 expressed with a C-terminal Fc fusion [mFc]) format.
# (§2) The soluble CD48 was applied to the flow cell in separate injections at different concentrations, and kinetic association (kₐ) and dissociation (kd) rate constants were determined by fits to the kinetic binding data using Biacore software. Binding dissociation equilibrium constants and dissociation half-times were calculated from the kinetic rate constants as: KD=kd/kₐ; t_{1/2}=(ln 2/kd) (units: ka=M⁻¹*s⁻¹; kd=s⁻¹; KD=M; T½=min) (Tables 3-6).
# Monomeric human CD48-mmH = target: T2, Monomeric human CD48-mmH; assay: SPR (Biacore T100), 25 C, antibody captured by anti-Fc, monomeric CD48-mmH in solution
# Protocol: as §1, §2
Kd (Dimeric human CD48-mFc) [nM],T½ (Dimeric human CD48-mFc) [h],koff (Dimeric human CD48-mFc) [s⁻¹],kon (Dimeric human CD48-mFc) [M⁻¹ s⁻¹],Kd (Monomeric human CD48-mmH) [nM],T½ (Monomeric human CD48-mmH) [h],koff (Monomeric human CD48-mmH) [s⁻¹],kon (Monomeric human CD48-mmH) [M⁻¹ s⁻¹],Binder
0.0958,5.25,3.66e-05,382000,3.2,0.417,0.000458,143000,B1
1.03,0.717,0.000266,259000,23.5,0.0667,0.00285,121000,B2
0.226,3.18,6.05e-05,268000,23.6,0.0833,0.00248,105000,B3
1.6,0.833,0.00023,144000,17,0.233,0.000849,50000,B4
0.841,2.05,9.38e-05,112000,39.1,0.133,0.00146,37300,B5
0.0149,41.4,4.65e-06,311000,0.454,4.08,4.72e-05,104000,B6
0.0304,21.5,8.95e-06,294000,0.476,4.1,4.69e-05,98600,B7
0.0144,15.7,1.23e-05,854000,0.194,5.85,3.3e-05,170000,B8
0.0212,10.2,1.9e-05,894000,0.893,1.12,0.000174,194000,B9
0.0134,17.4,1.11e-05,826000,1.35,0.883,0.000217,161000,B10
0.0179,14.7,1.31e-05,734000,0.34,3.92,4.92e-05,145000,B11
0.0151,16.5,1.17e-05,774000,0.246,4.93,3.9e-05,158000,B12
0.311,0.667,0.000288,928000,19.8,0.0333,0.0058,292000,B13
0.256,0.383,0.000499,1.95e+06,11.8,0.0333,0.00648,548000,B14
0.0268,3.52,5.48e-05,2.05e+06,8.2,0.0333,0.00631,769000,B15
0.288,0.367,0.00053,1.84e+06,11.8,0.0333,0.00619,524000,B16
